Experimental data reported in the domain aggregation screens of Martell et al. (2025).

Assay: soluble fraction after stress (log2 fold change); higher = more stays soluble; pooled small domains, quantitative proteomics
Settings: stress: pH 4
Summary of the method: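 Aggregation propensity is read out as the fold change in how much of each domain remains soluble after acid stress. The custom small-domain libraries were pooled, held at pH 4 and analysed with high-throughput quantitative proteomics. On the log2 scale used, higher values mean more of the domain stayed soluble.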

Row | Sequence | soluble fraction (log2)
1 | HMKEQLEAYVNRLFADAALTIRNAEVRQEILQHALDRYDDLIASGKTEQEAYDETVSGIGDVSGLYEHK | -0.526
2 | HMKETKVIHVHLIFKKTSRFFGSISAIYSEFTAEEIGITEETLRHKGLSDGVSFATKKAIIQQGVLIR | -1.45
3 | HMKEVDSESAFAERGISEVWIPALQKMGILTLEALDAANPNKVFNDLGGMRKKLKIDAAMPTKDEVTAWIQ | -0.053
4 | HMKEVKPSDFFLSKLDEDHNLIEKFNALSSFKQKEFIEYIDSAKQEKTKHDRFEKIKPILLSNIGLNDKYR | -0.102
5 | HMKEVVVPDYFLKQLQKNKKAFITFNNFSPSHKREYVEWITEAKTEETKNRRMKSAIEWMSEGKSRNWKYI | 0.22
6 | HMKFGETLIDLRKRNGLTQEELAAKLYVTRQAVSRWERGEVTPGIDMLKLIANVLNEPVAHLLDW | -0.435
7 | HMKFNRPMSEILQEWENKLGTTSDAELAGLIGVVTMTINRWRKNETKPDLSALNRYDRIVNLVVNNIKQL | -0.321
8 | HMKFPPELVEFIEGLSLLKPPLNYATVHRRAEKLAIKKGWASPSYSTVRNIIRKLSPALTTLAHEG | 0.22
9 | HMKGAADPAIKQKVLDYLDTVEKAKSKEIAKAISEEKSAVDLAVKELAFEDKVEYLYITTTFVALKGKVA | -0.865
10 | HMKGALQIAIEEGFNWNLDKKYWNIVQSTVIAKRLGLKTTSGLKEAIEGMGGEYKRTKKARGYLVPTFKD | 0.354
11 | HMKGDYWIIDLDKNYQYAIISEPDRQYLWILSRSPNMDTQTLETLKEKIRSKGFDLTYLKQTL | -1.24
12 | HMKGHQASTTWISERVKDIIKEDPTLGARKLQKRLEIHYNIELSYFKVWSGKNLQWMIFMVL | 0.00439
13 | HMKGSYTVKSGDNLWSIARKFYGGSGSTWTKIYSANKSTIESTARRYGRSSSDNGHWIYPGTVLVIP | 0.405
14 | HMKGVSFEEIERAVRTAQNPEADETAQQHAGMVFSRMEGNELFDKLVQSSSTIGKKITGLMDYYL | -0.378
15 | HMKGYIGESKARNIALKKAPGASITKFEFDKDDGIAVYEVELRKGIYEYELKINAVTGAIIEFEKDIE | 0.147
16 | HMKHKYWEIKERIKKDILNEVYKKGESIPSERDLAGIYDVTRVTVQKAMAMLVQEGYIERIHGKGMFVLKN | -0.0581
17 | HMKHRFVVGEVLSIGKLQHEITLKTAQGERKFQLDKQDLPASIQDGAKVRAELNEAGRVIDVHPLK | -0.178
18 | HMKHYMKITDISLQTRDKNRVNVSVDGKYRFSLDVFQVGELGLKVGREYTDEELTALEDESQFG | 0.0815
19 | HMKIATIELVKEAVKSKLGKFTKRDIMELVPSVGKTTIENMLKQLIGEGYIERHGKGRATFYVK | 0.158
20 | HMKIDANTFTSIEKQLFVLLSKTPTPMGSIFVALAKEDKEAVWEVIHFLEAENRLIMNEDGTIQL | -1.09
21 | HMKIDEVSFAYIERTLFSMLGKLPTPVNKVIATIGEEKKETIWEVIRFLESENKLITNEDGTLQL | -1.77
22 | HMKIDNIIIYITGGVKKEGVYELPDGSRISDAIEQAEGLKANADTSSINLAYKLEDGMKIKIPLQGEN | -0.664
23 | HMKIDNPEYQKIMDMIPYFFQTRNYDEAIEALSYVIEQEPSFSEAYNKRATFYFMMGDFENSMKDIESTLA | -0.75
24 | HMKIEEVIEKLKTDSIISRKEYEDIVRQINPNLSDRTIFWQLAKLQDMGVLQKIGQNSFHVRN | 0.0251
25 | HMKIERKGDESYLSFVERATSALSDGLIDYQQWGRAVVGEDLYSEENTRRIAKFFAQFIQNLEND | -1.6
26 | HMKIKAKYTTDFGIRIYAPKPGKNYWRISYVDLDGKLRDTTATSEKTALDKSAEIEVLLRNN | -0.232
27 | HMKILALETSAKAVSAAVSENGRILASGYQDTGLTHSRTLMPIVEHILKNTDLKLSDMDAIAVAVGPG | 0.22
28 | HMKIMSLSERHQKILELLKVNGIVSVNSLSRQLNVSSVTIRKDLGLLEEKKLLYRSHGGAIQID | -0.213

Row | Sequence | soluble fraction (log2)
29 | HMKINYNEFLRRFLGEKEGDIIEMETGKRIGTHKGYWFHTIGQRKGLGLGGGPWFVIRKDIDENIIYVSHG | -0.643
30 | HMKIPGIGDVYAILARVYSGPQFTWIEAGFPEDDTKAYSYLHTAIRKGSAIAILQAMRTSGALTPTIEKE | -0.457
31 | HMKIPPIMFVRAIMVAGRQSMAIMDIEGVGTGIIVRSGYSFSNGEGKVVRIGPDKVTVNWSGKHLDLAPG | -0.121
32 | HMKIPQFAVIKQYLEQQIKTAQWAPGRQIPTEQSLADTFSVSRMTARRAVQQLADAGLLERTQGSGTFVAD | -0.053
33 | HMKISDTITEKILTDNNFSMELAKKIGIQQGSLLSSIRRNRDSRILRLWEAVMFYKEQGYTEEEIFTDY | -0.864
34 | HMKISELAKKVIASGRVTQWAKHPHIYFVNGMRKVAIELDVNGVFSISMRYYPYDPADRELVENLIRGD | -0.572
35 | HMKIVQHQLQLPVHVAGKFKGMFYKSDFVMSEDYDDDGNMILAVRLPLVDWNKFLKRTDNELSQYIKVTP | -1.53
36 | HMKKALTAEQEARVRELYFRGINYYSANRYQDAIAEWRKVLAIDPNHEKAKNNIRQTLILLK | -0.123
37 | HMKKDNLKKIKSIDEDIENELFKLGIYHFEQISIWSSKNAEWIENFLNLPNYVRANQWVEQAKILK | -0.885
38 | HMKKDRKKMLKEGIVLFEKILRGMELSPTSEPLKKVLTSFNIQNKEDLYVKLGAGVISSEEVIKELKKK | ≥ 0.43
39 | HMKKILIVTNRSAGMVVYTIPEEGIRREFTPGETKKIPFEELEKLAYLSGGRTLMENFLKIVDTETTEELG | -1.44
40 | HMKKIYEEVSEAILTMIKNGTLKPGDKLLPVHQLAEQFQVGRSAVREALSALRAMGLIEMKQGEGTYVKNF | -0.6
41 | HMKKKVDSENLLLDILKQMQPQASTNVLRKMLTNQRISVDDQIIHRAKHVVQEGQTVEIHPKP | 0.139
42 | HMKKLPEKFDYNEISGLRIEAQQKLNEFQPLNIGQASRISGVTPADISVLLVYLEQLKYSNPDLFFKLNPD | -0.743
43 | HMKKLTAEEIQEAKDILEKIQEIPNFKKIFGDDTIKALENSTKTGVLLPDNIISKIHTLMIRFGIK | -0.248
44 | HMKKMEEEFALFNAWVDRRLGIPLAAYKENQMQRRILTIMENSGAKTLREYQQLIEGDEGVRAAFLAHIT | -1.76
45 | HMKKPIYLTIANDIEKKIFNNDYPKNERLPSERNLAEEYGVTRMTIRNSIEYLVSKGLLEKRLGSGNYVKR | ≥ 0.43
46 | HMKKPLEYIDVDKREDFPPVPNGMRYIHFYGGTKNYRAYIAPEDISRADFMEQYPEYVPEHN | 0.0177
47 | HMKKSTLLLFFLKELLEGKKISLKSFALENDINIRTAQRYIEDIEEAFPDNLLKENDFYSFV | -1.05
48 | HMKKTETVRFTTNVTHGTKIKETDVEVVKISNSALPDKVVKNKTEVIGKYATADLFKGDFATENKVTD | 0.192
49 | HMKKTIIVHVVGEVNTPGIVELNEGARIIDAINGAGGKTEEADMSKINLAYVIEDGSQIYVPSIYE | -1.08
50 | HMKKTITISNYINVRDFATMSELPVNSILSVLMKNGIFVSLNEKIDFDTAWLVGSELGLEVKQKQG | -0.818
51 | HMKKYEFIEDLPGVGPATAQKLRDLGYHTVESLAMATARELEPIGVGEKKAFSMIEAARSAIGFS | 0.00186
52 | HMKKYISEEQAKQAALETAGGGSVVKIKFTTDDGIKVYEIDIINGNYEYEITVHAETGKILDVDKERIH | -0.404
53 | HMKLELSNDFYNKIRLARKENGLTQEDLAEKLNMKVGVIQKIENGVRQTDSNLMKISKFLGVEIYVE | -0.303
54 | HMKLPNGYGGIAKLSGKRRNPWRVRVTKGWSVDEQTGKAKQLFSTLGYYPTRKDALAALSAYNQNP | 0.22
55 | HMKLRLGVNIDPVATVRNARGSAYPDPVRAAIIAQEAGADGITAHLREDRRHIVDQDITSIIKAIDIPLNF | -0.0902
